Laboratory results from patent US20180339057A1 (Novo Nordisk, published 2018).
Where a chain is given by its changes, count along the chain named. Names may count otherwise.

T1: human MIC-1 receptor (hGFRAL, GDNF family receptor alpha like), full length (human, UniProt Q6UXV0 19-394)
T1 sequence (looked up): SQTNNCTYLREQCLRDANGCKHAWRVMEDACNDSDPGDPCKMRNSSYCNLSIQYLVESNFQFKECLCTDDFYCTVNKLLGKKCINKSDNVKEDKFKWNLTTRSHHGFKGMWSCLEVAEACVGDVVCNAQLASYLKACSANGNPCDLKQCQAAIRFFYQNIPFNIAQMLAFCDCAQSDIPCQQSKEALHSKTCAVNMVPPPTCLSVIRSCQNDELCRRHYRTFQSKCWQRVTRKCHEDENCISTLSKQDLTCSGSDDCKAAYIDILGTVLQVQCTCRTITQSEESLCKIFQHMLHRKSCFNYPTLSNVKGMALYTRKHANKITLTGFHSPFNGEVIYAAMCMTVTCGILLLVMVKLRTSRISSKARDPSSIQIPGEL

B1: SEPATCGSETPGTSESATPESGPGTSTEPSEG-MIC-1, des-N3 (Cys mutation S(-27)C) (ligand)
chain: SEPATCGSETPGTSESATPESGPGTSTEPSEGARGDHCPLGPGRCCRLHTVRASLEDLGWADWVLSPREVQVTMCIGACPSQFRAANMHAQIKTSLHRLKPDTVPAPCCVPASYNPMVLIQKTDTGVSLQTYDDLLAKDCHCI
notes: homodimer; no protractor
B2: SEPATSCSETPGTSESATPESGPGTSTEPSEG-MIC-1, des-N3, M57L, M86L (Cys mutation G(-26)C) (ligand)
chain: B1 chain with C6S, G7C, M88L, M117L
notes: homodimer; no protractor
B3: SEPATSGCETPGTSESATPESGPGTSTEPSEG-MIC-1, des-N3, M57L, M86L (Cys mutation S(-25)C) (ligand)
chain: B1 chain with C6S, S8C, M88L, M117L
notes: homodimer; no protractor
B4: SEPATSGSETPGTSESACPESGPGTSTEPSEG-MIC-1, des-N3, M57L, M86L (Cys mutation T(-15)C) (ligand)
chain: B1 chain with C6S, T18C, M88L, M117L
notes: homodimer; no protractor
B5: SEPATSGSETPGTSESATPESGPGTSTEPCEG-MIC-1, des-N3, M57L, M86L (Cys mutation S(-3)C) (ligand)
chain: B1 chain with C6S, S30C, M88L, M117L
notes: homodimer; no protractor
B6: SEPATSGSETPGTSESATPESGPGTSTEPSEG-MIC-1, del-N3, M57L, M86L, K69R, K107R, K91R (ligand)
chain: B1 chain with C6S, M88L, K100R, M117L, K122R, K138R
notes: homodimer; no protractor
B7: SEPCTSGSETPGTSESATPESGPGTSTEPSEG-MIC-1, des-N3 (Cys mutation A(-29)C) (ligand)
chain: B1 chain with A4C, C6S
notes: homodimer; no protractor
B8: SEPCTSGSETPGTSESATPESGPGTSTEPSEG-MIC-1, des-N3, M57L, M86L (Cys mutation A(-29)C) (ligand)
chain: B1 chain with A4C, C6S, M88L, M117L
notes: homodimer; no protractor
B9: Compound 10 (ligand)
chain: B1 chain with C6S, M88L, M117L
modifications: alpha-amino group of the N-terminal Ser-32 (residue 1 of SEQ ID NO: 164): N-[4-[[[2-[2-[2-[[2-[2-[2-[[(4S)-4-carboxy-4-(17-carboxyheptadecanoylamino)butanoyl]amino]ethoxy]ethoxy]acetyl]amino]ethoxy]ethoxy]acetyl]amino]methyl]phenyl]methyl (protractor of Example 10.1)
notes: homodimer with one protractor on each of the two N-terminal extensions; also called Formula A (C18)
B10: Compound 15 (ligand)
chain 1: B1 chain with C6S, M88L, K100R, M117L, K122R, K138R
chain 2: B1 chain with C6S, M88L, K100R, M117L, K122R, K138R
modifications: alpha-amino group of the N-terminal Ser-32 (residue 1 of SEQ ID NO: 312): N-[4-[[[2-[2-[2-[[2-[2-[2-[[(4S)-4-carboxy-4-(17-carboxyheptadecanoylamino)butanoyl]amino]ethoxy]ethoxy]acetyl]amino]ethoxy]ethoxy]acetyl]amino]methyl]phenyl]methyl (protractor of Example 10.1)
notes: also called monoalkylated
B11: Macrophage Inhibitory Cytokine-1 (MIC-1), human wild type, monomer sequence SEQ ID NO:1 (ligand)
chain: ARNGDHCPLGPGRCCRLHTVRASLEDLGWADWVLSPREVQVTMCIGACPSQFRAANMHAQIKTSLHRLKPDTVPAPCCVPASYNPMVLIQKTDTGVSLQTYDDLLAKDCHCI
notes: covalently linked homodimer; 112 amino acid monomer = residues 197-308 of the precursor; also called wtMIC-1

How the values were obtained:
[1] = target: T1, human MIC-1 receptor (hGFRAL, GDNF …); assay: cell-based or functional assay
[2] = target: T1, human MIC-1 receptor (hGFRAL, GDNF …); assay: SPA: displacement of 50 pM human [125I]-MIC-1 from BHK21-hGFRAL-IRES-hRET cell membranes
Description: Binding potencies of MIC-1 compounds were calculated by IC50 of displacement curves.
BHK21-hGFRAL-IRES-hRET cells were cultured at +37° C. in a humidified atmosphere with 5% CO₂ in complete medium consisting of DMEM with high glucose and sodium pyrovate, heat inactivated 10% Fetal Bovine Serum, 1% Penicillin-Streptomycin, 1 mg/ml G418-Geneticin and 400 ug/ml Hygromycin. Cells were washed twice in ice cold Dulbecco's phosphate-buffered saline (DPBS) and detached mechanically by scraping, transferred in ice cold DPBS into conical centrifuge tubes and centrifuged for 5 min at 1500 rpm at +20° C. Cell pellet was resuspended in a total amount of 10 ml ice cold homogenization buffer A (50 mM Tris, 2.5 mM EDTA, adjust pH7.4 with one EDTA-free protease inhibitor cocktail tablet/50 ml) and homogenized for 20 seconds. The homogenate was centrifuged at 16000 rpm in 20 minutes at +4° C. The supernatant was discarded and the pellet was reconstituted in 10 ml homogenization buffer B (50 mM Tris, 320 mM Sucrose, adjust pH 7.4 with one EDTA-free protease inhibitor cocktail tablet/50 ml) and homogenized for 20 seconds and centrifuged at 16000 rpm in 20 minutes at +4° C. This procedure was repeated one more time. The supernatant was discarded and the pellet was reconstituted in 3 ml homogenization buffer B and homogenized for 10 seconds at low speed. Protein concentration was determined by standard Bradford method and 1.5 mg protein/tube was aliquoted to cryotubes and stored at −80° C. Binding assays were performed in white 96-well plates in a total volume of 200 μl per well. Wheat germ agglutinin SPA beads were reconstituted in assay buffer (50 mM Tris/HCl, 4.5 mM MgCl₂, 0.02% Tween 20 and 0.25% Ovalbumin pH 7.4) and mixed with membrane preparation to give a final concentration of 0.5 mg SPA beads and 10 μg total protein per well. […] The plate was sealed and incubated at +22° C. for 2 hours in a plate shaker set at 350 rpm and thereafter centrifuged at 1500 rpm for 10 minutes prior to reading of SPA bead light emission.

[3] = target: T1, human MIC-1 receptor (hGFRAL, GDNF …); assay: cell-based or functional assay; remark: listed apart in the source

| Binder | Luciferase + 0.1% HSA NNDK EC50 (pM) [1] [pM] | Luciferase NNDK EC50 (pM) [1] [pM] | IC50 [2] [nM] | Emax (%) [3] [%] | pERK EC50 (nM) [3] [nM] |
| --- | --- | --- | --- | --- | --- |
| B1 | 45 | 80 | 10 |  |  |
| B2 | 26 | 35 | 36 |  |  |
| B3 | 34 | 57 | 43 |  |  |
| B4 | 115 | 125 | 29 |  |  |
| B5 | 243 | 217 | 83 |  |  |
| B6 | 35 | 42 | 116 |  |  |
| B7 | 47 | 70 | 6.7 |  |  |
| B8 | 75 | 100 | 80 |  |  |
| B9 | 146 | 71 | 20 |  |  |
| B10 | 39 | 61 | 39 |  |  |
| B11 | 36 | 59 | 0.67 | 100 | 0.3 |
